Patent publication US20260007728A1, “COMBINATION THERAPIES INVOLVING L-ASPARAGINASE” (Jazz Pharmaceuticals Ireland Ltd., priority 2022, published 2026)

Columns and labels:
[1] = tested on: cell lines with low and high ASNS expression; test: Bliss synergy of pathway inhibitors with JZP-458 (cytotoxicity readout); format: cell-based; details: in combination with JZP-458
Procedure: Combination study BLISS matrix-Bliss Assay Protocol: Cells were plated in 384-well plates in 45 μl cell culture medium at a density of, that is, at numbers of cells per well as indicated in FIG. 24. For each cell line, the optimal cell density was determined a priori to obtain an optimal assay window. Plated cells were incubated in a humidified incubator with 5% CO2 at 37° C. 24 hours post-plating, 5 μl of compound dilution was added to each well and plates were further incubated for another 72 hours after which 25 μl of ATPlite 1 Step (PerkinElmer, Groningen, The Netherlands) solution was added to each well. Luminescence was recorded on an Envision multimode reader (PerkinElmer, Waltham, MA, U.S.A.). For determination of Bliss independence scores, two drugs were added in increasing concentrations in a 6×6 matrix. […] The percent viability for each drug either alone or in combination was determined relative to control samples and the Bliss independence scores for each combination were determined as described (Liu, Q., et al., Stat Biopharm. Res. 10: 112; 2018). […]

[2] = tested on: BCL2 expression in triple hit lymphoma line WSU-DLCL2; test: qPCR gene expression after compound treatment; format: cell-based
Procedure: (§1) Cell Culture: Cell culture medium: RPMI 1640 medium (#2198761, Thermo Fisher) supplemented with 10% fetal calf serum (#S00AZ, BioWest) and 1% pen/strep (#15140-122, Thermo Fisher). At day-1, 900 μl cell suspension was seeded in 24-well plates (#662165, Greiner Bio-One) at a density of 128,000 cells/well. At day 0, 100 μl compound was added in three different concentrations to reach a final concentration of 0.316×IC50, 1×IC50, and 3.16×IC50 (unless indicated otherwise). To the control samples, 100 μl 20 mM HEPES+3.16% DMSO was added instead of compound. When the compound is prepared in HEPES instead of DMSO, 20 mM HEPES without DMSO was added to the cells. The cells were collected at 6 hours, 24 hours and 48 hours after addition of the compound and were transferred to a 96-well deep well plate and centrifuged for 5 min at 340×g. Prior to the collection of the cells microscopic pictures were taken from the untreated (control) cells. After removing the medium, 200 μl RNA protect (#76526, Qiagen) was added to the cell pellet and the cells were stored at −80° C.
(§2) RNA isolation: Total RNA was isolated with the SV96 Total RNA Isolation System kit (#Z3505, Promega) according to manufacturer's instructions. The procedure includes a ‘RNAse free DNAse’ gDNA removal step.
(§3) Determining the RNA concentration: RNA concentrations were determined with the RiboGreen (#R11490, Thermo Fisher) kit according to manufacturer's instructions.
(§4) cDNA synthesis: RNA was reverse transcribed into cDNA using the Quantitect Reverse Transcript Kit (#205313, Qiagen) according to manufacturer's instructions. This procedure includes a second ‘RNAse free DNAse’ gDNA removal step, ensuring the complete removal of gDNA from the samples. For each time point (6 h, 24 h, or 48 h) identical volumes of RNA were used for cDNA synthesis. After synthesis, cDNA is diluted with nuclease free water to obtain approximately similar cDNA concentrations per sample.
(§5) qPCR: 1) 50° C. for 10 min (Uracil-DNA glycosylase ([…]) step to remove all potential traces of amplicon DNA from previous qPCRs); 2) 5 min UDP inactivation/denaturation at 95° C.; 3) 40 cycles of 10s denaturation at 95° C., 20s annealing at 60° C., and 30s extension at 72° C.; and 4) Dissociation curve to determine the melting temperature of the qPCR amplicon.
(§6) qPCR Data Analysis: Cq and Tm raw data values are determined by the BioRad CFX manager software from the PCR machine. For every PCR sample that produced a Cq value the corresponding melting temperature of the PCR amplicon (Tm) was checked to identify samples that generated dual or a specific PCR products. A PCR product is regarded a specific when its Tm is >0.5° C. different from that the Tm of the specific PCR amplicon, in this case the Cq value is removed and not used for further data analysis. Cq values were than normalized by subtracting the (mean) Cq value of the two housekeeping genes (ACTB & RPS18) from the Cq value of the gene of interest. The normalized value is called DCq. The Cq difference between sample and the control (DDCq) was calculated by subtracting DCq control from DCq sample. The fold difference in expression between the control (no compound) and the compound treated sample is than calculated according the 2^-DDCq method.

[3] = Aggregation of asparaginase batches; format: physicochemical; details: product batches
Source text: In some embodiments, the recombinant L-asparaginase of the disclosure has greater purity than other L-asparaginases. […] In some embodiments, the amount of aggregation of the recombinant L-asparaginase is less than 10%, 9%, 8%, 7%, 6%, 5%, 4%, 3%, 2%, 1%, 0.5%, 0.25%, 0.2%, 0.1%, or 0.01%. In some embodiments, the amount of aggregation seen in compositions containing the recombinant L-asparaginase is less than 1-10%. In some embodiments, the amount of aggregation seen in compositions containing the recombinant L-asparaginase is less than 10%. In some embodiments, the amount of aggregation of the recombinant L-asparaginase is less than 9%. In some embodiments, the amount of aggregation of the recombinant L-asparaginase is less than 8%. In some embodiments, the amount of aggregation of the recombinant L-asparaginase is less than 7%. In some embodiments, the amount of aggregation of the recombinant L-asparaginase is less than 6%. In some embodiments, the amount of aggregation of the recombinant L-asparaginase is less than 5%. In some embodiments, the amount of aggregation of the recombinant L-asparaginase is less than 4%. In some embodiments, the amount of aggregation of the recombinant L-asparaginase is less than 3%. In some embodiments, the amount of aggregation of the recombinant L-asparaginase is less than 2%. […]

[4] = In vivo tolerability study in naïve SCID mice; details: 150 U/kg in combination with venetoclax and R-CHOP constituents
Source text: Sensitivity to asparaginase and 11 chemotherapeutic agents (carfilzomib, doxorubicin, rapamycin, ibrutinib, cyclophosphamide, prednisolone, metformin, venetoclax, navitoclax, rituximab and vincristine) determined in 8 lymphoma lines, including diffuse large B-cell and Burkitt lymphomas. The investigated lymphoma lines are sensitive to asparagine depletion within the clinically achievable range. Expression of decisive genes (BCL2, BCL6, BCL2L1, MYC, ASNS) determined in 8 lymphoma lines (FIGS. 11 and 12). Increased expression of BCL2 served as marker for resistance of ibrutinib and rapamycin in triple hit lymphoma (FIGS. 11 and 12). Increased expression of ASNS served as marker for resistance of carfilzomib and asparaginase in Burkitt lymphoma (FIGS. 11 and 12). Identified combination agents that enhanced asparaginase activity in vitro include synergy of JZP458 and rituximab, venetoclax and ibrutinib in lymphoma lines (DLBCL) (see FIG. 13, FIG. 15, and FIG. 17). […] In vivo tolerability study of long acting Erwinia Asparaginase.

[5] = Half life of asparaginases; details: in vivo
[6] = tested on: ASNS expression in Burkitt lymphoma lines; test: qPCR gene expression after compound treatment; format: cell-based
Procedure: as §1, §2, §3, §4, §5, §6

[7] = tested on: BCL2 expression in DLBCL lines (ABC and GCB type); test: qPCR gene expression after compound treatment; format: cell-based
Procedure: as §1, §2, §3, §4, §5, §6

[8] = tested on: liquid tumors with NRAS mutations; test: Sensitivity to L-asparaginase across cell line panel by NRAS status; format: cell-based; details: NRAS mutant vs other lines
Procedure: Sensitivity to L-asparaginase was determined in 140 lines across multiple indications. In silico tandem perturbation effects of Asparagine synthetase and signaling components analyzed (≈700 lines). A subset of lines are ASNS dependent for survival (see McDonald, E. Robert et al. (2017). Project DRIVE: A Compendium of Cancer Dependencies and Synthetic Lethal Relationships Uncovered by Large-Scale, Deep RNAi Screening. Cell 170, 577-592 and https://oncologynibr.shinyapps.io/drive/which is herein incorporated by reference to show expression of ASNS and sensitivity to asparagine depletion). In vitro, most lines are sensitive to asparagine depletion within a clinically achievable range (see FIG. 6).

CO[C@H]1C[C@@H]2CC[C@@H](C)[C@@](O)(O2)C(=O)C(=O)N2CCCC[C@H]2C(=O)O[C@H]([C@H](C)C[C@@H]2CC[C@@H](OCCO)[C@H](OC)C2)CC(=O)[C@H](C)/C=C(\C)[C@@H](O)[C@@H](OC)C(=O)[C@H](C)C[C@H](C)/C=C/C=C/C=C/1C [everolimus]
Bliss sum score compared with PI3K inhibitors and MEK inhibitors [1]: increased

C=CC(=O)N1CCC[C@@H](n2nc(-c3ccc(Oc4ccccc4)cc3)c3c(N)ncnc32)C1 [ibrutinib]
increase of BCL2 expression [2]: 1.25 fold

CO[C@H]1C[C@@H]2CC[C@@H](C)[C@@](O)(O2)C(=O)C(=O)N2CCCC[C@H]2C(=O)O[C@H]([C@H](C)C[C@@H]2CC[C@@H](O)[C@H](OC)C2)CC(=O)[C@H](C)/C=C(\C)[C@@H](O)[C@@H](OC)C(=O)[C@H](C)C[C@H](C)/C=C/C=C/C=C/1C [rapamycin]
increase of BCL2 expression [2]: 1 fold

B1: Erwinase: Erwinia chrysanthemi L-asparaginase type II product commercially approved for ALL (protein, UniProt P06608 22-348, looked up)
L-asparaginase: ADKLPNIVILATGGTIAGSAATGTQTTGYKAGALGVDTLINAVPEVKKLANVKGEQFSNMASENMTGDVVLKLSQRVNELLARDDVDGVVITHGTDTVEESAYFLHLTVKSDKPVVFVAAMRPATAISADGPMNLLEAVRVAGDKQSRGRGVMVVLNDRIGSARYITKTNASTLDTFKANEEGYLGVIIGNRIYYQNRIDKLHTTRSVFDVRGLTSLPKVDILYGYQDDPEYLYDAAIQHGVKGIVYAGMGAGSVSVRGIAGMRKAMEKGVVVIRSTRTGNGIVPPDEELPGLVSDSLNPAHARILLMLALTRTSDPKVIQEYFHTY
aggregation [3]: about 6%

B2: JZP341: pasylated L-asparaginase; long acting Erwinia asparaginase (protein, UniProt P06608 22-348, looked up)
L-asparaginase: B1 L-asparaginase
modifications: PASylated
tolerability [4]: tolerated
half life t½ [5]: ~16 h

B3: JZP-458: recombinant, unfunctionalized, short acting Erwinia L-asparaginase (SEQ ID NO: 1 tetramer) (protein, listed as Dickeya chrysanthemi)
chain: B1 L-asparaginase
modifications: homotetramer
change of ASNS expression ([6]; Burkitt lymphoma lines): significantly increase
increase of ASNS expression ([6]; Burkitt lymphoma lines (BJAB, RAJI, RAMOS), after treatment): 0.75 fold
change of BCL2 expression [7]: decrease
sensitivity of liquid tumors with NRAS mutations [8]: more sensitive
half life t½ [5]: ~2.13 h
